Data reported in publication PMC7219239, “Folding-Based Electrochemical Aptasensor for the Determination of β-Lactoglobulin on Poly-L-Lysine Modified Graphite Electrodes”.

Molecular target: T1, beta-lactoglobulin B (β-LG) (Bos taurus? (cow's milk), UniProt P02754 17-178)
T1 sequence: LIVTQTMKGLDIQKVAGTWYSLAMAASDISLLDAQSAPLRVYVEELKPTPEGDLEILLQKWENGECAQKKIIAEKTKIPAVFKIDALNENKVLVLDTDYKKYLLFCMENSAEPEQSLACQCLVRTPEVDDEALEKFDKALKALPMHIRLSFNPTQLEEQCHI
Experiment: electrochemical folding-based aptasensor (DPV, MB signal-on); PBS-based buffer without MgCl2; 45 min incubation; linear 0.1-10 ng/mL, LOD 0.09 ng/mL; no Kd in the material; Measurement in PBS-based buffer without MgCl2 (wash buffer 0.1 M PBS, 150 mM NaCl, pH 7.4), 45 min; aptamer immobilized at 1 µM in 50 mM Tris, 150 mM NaCl, 2 mM MgCl2, pH 7.4; temperature not stated
Details: protein: commercial; chain copies: 2; label: methylene blue (3')

B1: anti-β-LG aptamer, thiolated, MB-tagged (ssDNA)
DNA: CGACGATCGGACCGCAGTACCCACCCACCAGCCCCAACATCATGCCCATCCGTGTGTG
modifications: 5'-thiol (HS); 3'-methylene blue
binding result: binds
